Data from patent US20260234188A1, “CHEMOKINE-BINDING PEPTIDES” (Oxford University Innovation Limited, priority 2022, published 2026).

Tests used:
CC and CXC chemokines = assay: Chemokine-induced cell migration assays, pooled over chemokines (meta-analysis); type: cell-based, human; settings: CC chemokines
Protocol: FIG. 16. Effect of HD2 alanine mutations on chemotaxis. […] All experiments were performed as three technical and three biological replicates, and individual data points are indicated, and coloured by the chemokine used. Statistically significant differences (compared to control, coloured blue), using Dunnett's test with correction for multiple comparisons, are indicated by asterisks: ****=P≤0.0001, ***=P≤0.001, **=P≤0.01, *=P≤0.05, n=45 observations per group (three technical and three biological replicates for each chemokine). FIG. 16B, Faceted plots of change in median normalised cell count between alanine mutant and wild-type HD2 peptide obtained in cell migration assays (Y-axis, Δmedian normalised cell count) versus alanine mutated residue (X-axis). Chemokines used for each experiment are indicated in the strip to the right of each plot. Statistically significant differences compared to parental HD2 are shown as red dots. […]
Briefly, cell migration assays use THP1 cells (human monocyte) and primary human buffy coat white cells (consisting of neutrophil granulocytes, monocytes, and lymphocytes), and activated T-cells. […] Assays are performed in 96-well Boyden chambers, and migrated cells counted and characterized using and ATTUNE Flow Cytometer as described. […]

CXCL10 = biological target: T1, CXCL10 (Homo sapiens, UniProt P02778); assay: CXCL10-induced activated T-cell migration, transwell assay; type: cell-based; settings: dose of 20 μM
T1 construct: purchased Peprotech
T1 sequence (P02778 22-98): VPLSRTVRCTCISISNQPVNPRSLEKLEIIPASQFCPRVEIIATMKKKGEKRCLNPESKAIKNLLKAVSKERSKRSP
Protocol: FIG. 2. […] BK1.2 is described in (Darlot, 2020). […] Chemokines used are indicated by the name, followed in parenthesis by the supplier code (P in supplier code indicates Peprotech). […] All experiments were performed at EC80 doses of indicated chemokine. Data are shown as box-whisker plots of three technical and three biological replicates. Statistically significant differences (compared to control, indicated by #), using Dunnett's test with correction for multiple comparisons, are indicated by asterisks: ****=P≤0.0001, ***=P≤0.001, **=P≤0.01, *=P≤0.05.
FIG. 11. […] Technical replicates are shown as individual data points. […] The response curve (solid blue line) and its 95% confidence interval (grey ribbon) were calculated using a 4-parameter log-logistic plot.
Briefly, cell migration assays use THP1 cells (human monocyte) and primary human buffy coat white cells (consisting of neutrophil granulocytes, monocytes, and lymphocytes), and activated T-cells. THP1 cells and primary monocytes respond to CCL2, CCL3, CCL5, CCL8 and CXCL4, granulocytes to CXCL1 and CXCL8, activated T-cells to CXCL9/10/11. Assays are performed in 96-well Boyden chambers, and migrated cells counted and characterized using and ATTUNE Flow Cytometer as described. […]

B1: EVA4: parental class A tick evasin protein of HD2, expressed in HEK293F cells (protein)
chain: EVPQMTSSSAPDLEEEDDYTAYAPLTCYFTNSTLGLLAPPNCSVLCNSTTTWFNETSPNNASCLLTVDFLTQDAILQENQPYNCSVGHCDNGTCAGPPRHAQCW
In the case of B1, the “inhibition of CC chemokines in dose-response experiments” value (CC and CXC chemokines) is reported as “inhibited” and the “inhibition of cell migration” value (CXCL10) is reported as “did not inhibit”.
